# Assay results published in patent publication US20140241984A1 (UNITED ARAB EMIRATES UNIVERSITY, published 2014).
# T1: IAPP fibrils (UniProt P10997 34-70)
# T1 construct: Amyloid fibrils of IAPP spotted in the dot blot; also called islet amyloid polypeptide
# T1 peptide (looked up): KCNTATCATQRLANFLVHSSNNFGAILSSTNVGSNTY
# T2: IAPP monomers (UniProt P10997 34-70)
# T2 peptide (looked up): T1 peptide (looked up)
# T3: fibrils of NAC (61-78) (human)
# T3 construct: also called NAC (61-78) (F)
# T3 peptide: EQVTNVGGAVVTGVTAVA
# T4: α-synuclein peptide 1 (1-14) (human)
# T4 construct: also called Peptide No. 1
# T4 peptide: MDVFMKGLSKAKEG
# T5: α-synuclein peptide 2 (8-21) (human)
# T5 construct: also called Peptide No. 2
# T5 peptide: LSKAKEGVVAAAEK
# T6: α-synuclein peptide 3 (15-28) (human)
# T6 construct: also called Peptide No. 3
# T6 peptide: VVAAAEKTKQGVAE
# T7: α-synuclein peptide 6 (36-49) (human)
# T7 construct: also called Peptide No. 6
# T7 peptide: GVLYVGSKTKEGVV
# T8: α-synuclein peptide 7 (43-56) (human)
# T8 construct: also called Peptide No. 7
# T8 peptide: KTKEGVVHGVATVA
# T9: α-synuclein peptide 8 (50-63) (human)
# T9 construct: also called Peptide No. 8
# T9 peptide: HGVATVAEKTKEQV
# T10: α-synuclein peptide 9 (57-70) (human)
# T10 construct: also called Peptide No. 9
# T10 peptide: EKTKEQVTNVGGAV
# T11: α-synuclein peptide 10 (64-77) (human)
# T11 construct: also called Peptide No. 10
# T11 peptide: TNVGGAVVTGVTAV
# T12: α-synuclein peptide 11 (71-84) (human)
# T12 construct: also called Peptide No. 11
# T12 peptide: VTGVTAVAQKTVEG
# T13: α-synuclein peptide 12 (78-91) (human)
# T13 construct: also called Peptide No. 12
# T13 peptide: AQKTVEGAGSIAAA
# T14: α-synuclein peptide 13 (85-98) (human)
# T14 construct: also called Peptide No. 13
# T14 peptide: AGSIAAATGFVKKD
# T15: α-synuclein peptide 14 (92-105) (human)
# T15 construct: also called Peptide No. 14
# T15 peptide: TGFVKKDQLGKNEE
# T16: α-synuclein peptide 15 (99-112) (human)
# T16 construct: also called Peptide No. 15
# T16 peptide: QLGKNEEGAPQEGI
# T17: α-synuclein peptide 16 (106-119) (human)
# T17 construct: also called Peptide No. 16
# T17 peptide: GAPQEGILEDMPVD
# T18: α-synuclein peptide 17 (113-126) (human)
# T18 construct: also called Peptide No. 17
# T18 peptide: LEDMPVDPDNEAYE
# T19: α-synuclein peptide 18 (120-133) (human)
# T19 construct: also called Peptide No. 18
# T19 peptide: PDNEAYEMPSEEGY
# B1: Syn-O2 (antibody, IgG1, V domains shown)
# VH: EVQLVESGGGLVQPKGSLKLSCAASGFTFNTYAMHWVRQAPGKGLEWVARIRSKSSNYATYYADSVKDRFTISRDDSQSMLYLQMNNLKTEDTAMYYCVRPLKWYFDVWGTGTTVTVSS
# VL: QIVLTQSPAILSASPGEKVTMTCSASSTVNYMHWYQQKSGTSPKIWIYDTSKLASGVPARFSGSGSWTSYSLTISSMEAEDAATYYCQQWNSNPPTFGAGTKLELK
# notes: same VH and VL as Syn-O1, Syn-O3, Syn-O4; also called mAb Syn-O2
# B2: Syn-O3 (antibody, IgG1, V domains shown)
# VH: B1 VH
# VL: B1 VL
# notes: same VH and VL as Syn-O1, Syn-O2, Syn-O4; also called mAb Syn-O3
# B3: Syn-O4 (antibody, IgG1, V domains shown)
# VH: B1 VH
# VL: B1 VL
# notes: same VH and VL as Syn-O1, Syn-O2, Syn-O3; also called mAb Syn-O4
# Molecular target: T20, A-beta fibrils (UniProt P05067 672-713, limits assumed)
# T20 construct: Amyloid fibrils of A-beta spotted in the dot blot; also called β-amyloid
# Assay: dot blot
# Method: (§1) The membranes were blocked with 5% skimmed milk in PBST (PBS containing 0.05% Tween) and incubated for 1 h at room temperature. […] The membranes were washed and incubated with either 1/20000 diluted goat anti-mouse IgG-HRP (Jackson ImmunoResearch) or 1/10000 diluted goat anti-rabbit IgG-HRP (Jackson Immunoresearch) for 1 h at room temperature. The blots were then developed with Super signal West Pico chemiluminescent substrate.
# (§2) C) To test the cross reactivity of our conformational monoclonal antibodies to different fragments of α-synuclein. […] The membranes were washed before incubating with either 1/20000 diluted goat anti-mouse IgG-HRP conjugate (Jackson Immunoresearch) or 1/300000 diluted chicken anti-goat IgG-HRP conjugate (Santa Cruz Biotechnology) for 1 h at room temperature. The blots were then developed with Super signal West Pico chemiluminescent substrate.
row,Binder,binding result
1,B1,"no binding (tested: 50 ng/ml antibody, 50 ng spotted)"
2,B2,"no binding (tested: 50 ng/ml antibody, 50 ng spotted)"
3,B3,"no binding (tested: 50 ng/ml antibody, 50 ng spotted)"

# Molecular target: T21, A-beta monomers (UniProt P05067 672-713, limits assumed)
# T21 construct: also called β-amyloid monomers
# Assay: dot blot
# Method: as §1, §2
row,Binder,binding result
1,B1,"no binding (tested: 50 ng/ml antibody, 50 ng spotted)"
2,B2,"no binding (tested: 50 ng/ml antibody, 50 ng spotted)"
3,B3,"no binding (tested: 50 ng/ml antibody, 50 ng spotted)"

# Molecular target: T1, IAPP fibrils
# Assay: dot blot
# Method: as §1, §2
row,Binder,binding result
1,B1,"no binding (tested: 50 ng/ml antibody, 50 ng spotted)"
2,B2,"no binding (tested: 50 ng/ml antibody, 50 ng spotted)"
3,B3,"no binding (tested: 50 ng/ml antibody, 50 ng spotted)"

# Molecular target: T2, IAPP monomers
# Assay: dot blot
# Method: as §1, §2
row,Binder,binding result
1,B1,"no binding (tested: 50 ng/ml antibody, 50 ng spotted)"
2,B2,"no binding (tested: 50 ng/ml antibody, 50 ng spotted)"
3,B3,"no binding (tested: 50 ng/ml antibody, 50 ng spotted)"

# Molecular target: β-synuclein fibrils (UniProt Q16143 1-134)
# Sequence (Q16143 whole entry): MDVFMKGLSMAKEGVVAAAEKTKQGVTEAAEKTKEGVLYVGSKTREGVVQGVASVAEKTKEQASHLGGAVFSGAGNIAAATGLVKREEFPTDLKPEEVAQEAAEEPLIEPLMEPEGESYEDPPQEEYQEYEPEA
# Assay: dot blot
# Method: as §1, §2
row,Binder,binding result
1,B1,no binding (tested: 50 ng spotted)
2,B2,no binding (tested: 50 ng spotted)
3,B3,no binding (tested: 50 ng spotted)

# Molecular target: β-synuclein monomers (UniProt Q16143 1-134)
# Sequence (Q16143 whole entry): as above
# Assay: dot blot
# Method: as §1, §2
row,Binder,binding result
1,B1,no binding (tested: 50 ng spotted)
2,B2,no binding (tested: 50 ng spotted)
3,B3,no binding (tested: 50 ng spotted)

# Molecular target: γ-synuclein fibrils (UniProt O76070 1-127)
# Sequence (O76070 whole entry): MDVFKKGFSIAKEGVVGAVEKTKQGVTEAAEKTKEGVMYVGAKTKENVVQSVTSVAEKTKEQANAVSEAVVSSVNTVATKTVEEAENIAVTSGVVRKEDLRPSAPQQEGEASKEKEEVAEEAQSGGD
# Assay: dot blot
# Method: as §1, §2
row,Binder,binding result
1,B1,no binding (tested: 50 ng spotted)
2,B2,no binding (tested: 50 ng spotted)
3,B3,no binding (tested: 50 ng spotted)

# Molecular target: γ-synuclein monomers (UniProt O76070 1-127)
# Sequence (O76070 whole entry): as above
# Assay: dot blot
# Method: as §1, §2
row,Binder,binding result
1,B1,no binding (tested: 50 ng spotted)
2,B2,no binding (tested: 50 ng spotted)
3,B3,no binding (tested: 50 ng spotted)

# Molecular target: T22, fibrils of NAC (61-95) (human)
# T22 construct: also called NAC region (61-95) (F)
# Assay: dot blot
# Method: as §1, §2
row,Binder,binding result
1,B1,no binding (tested: 50 ng spotted)
2,B2,no binding (tested: 50 ng spotted)
3,B3,no binding (tested: 50 ng spotted)

# Molecular target: T3, fibrils of NAC (61-78)
# Assay: dot blot
# Method: as §1, §2
row,Binder,binding result
1,B1,no binding (tested: 50 ng spotted)
2,B2,no binding (tested: 50 ng spotted)
3,B3,no binding (tested: 50 ng spotted)

# Molecular target: T4, α-synuclein peptide 1 (1-14)
# Assay: pepscan ELISA
# Method: (§3) To confirm the pepscan results using dot blot the mAbs were also tested by Pepscan using ELISA. […] The plate was washed with PBST and 50 μl of substrate (SuperSignal ELISA Femto Maximum Sensitivity Substrate, Thermo Scientific) was added and immediately read the plate using Victor X3 microtiter plate reader. After the ELISA signals were measured, the plate was also exposed onto X-ray film to develop the spots.
row,Binder,binding result
1,B1,"no binding (tested: 100 ng/ml antibody, 500 ng/well peptide)"
2,B2,"no binding (tested: 100 ng/ml antibody, 500 ng/well peptide)"
3,B3,"no binding (tested: 100 ng/ml antibody, 500 ng/well peptide)"

# Molecular target: T5, α-synuclein peptide 2 (8-21)
# Assay: pepscan ELISA
# Method: as §3
row,Binder,binding result
1,B1,"no binding (tested: 100 ng/ml antibody, 500 ng/well peptide)"
2,B2,"no binding (tested: 100 ng/ml antibody, 500 ng/well peptide)"
3,B3,"no binding (tested: 100 ng/ml antibody, 500 ng/well peptide)"

# Molecular target: T6, α-synuclein peptide 3 (15-28)
# Assay: pepscan ELISA
# Method: as §3
row,Binder,binding result
1,B1,"no binding (tested: 100 ng/ml antibody, 500 ng/well peptide)"
2,B2,"no binding (tested: 100 ng/ml antibody, 500 ng/well peptide)"
3,B3,"no binding (tested: 100 ng/ml antibody, 500 ng/well peptide)"

# Molecular target: T7, α-synuclein peptide 6 (36-49)
# Assay: pepscan ELISA
# Method: as §3
row,Binder,binding result
1,B1,"no binding (tested: 100 ng/ml antibody, 500 ng/well peptide)"
2,B2,"no binding (tested: 100 ng/ml antibody, 500 ng/well peptide)"
3,B3,"no binding (tested: 100 ng/ml antibody, 500 ng/well peptide)"

# Molecular target: T8, α-synuclein peptide 7 (43-56)
# Assay: pepscan ELISA
# Method: as §3
row,Binder,binding result
1,B1,"no binding (tested: 100 ng/ml antibody, 500 ng/well peptide)"
2,B2,"no binding (tested: 100 ng/ml antibody, 500 ng/well peptide)"
3,B3,"no binding (tested: 100 ng/ml antibody, 500 ng/well peptide)"

# Molecular target: T9, α-synuclein peptide 8 (50-63)
# Assay: pepscan ELISA
# Method: as §3
row,Binder,binding result
1,B1,"no binding (tested: 100 ng/ml antibody, 500 ng/well peptide)"
2,B2,"no binding (tested: 100 ng/ml antibody, 500 ng/well peptide)"
3,B3,"no binding (tested: 100 ng/ml antibody, 500 ng/well peptide)"

# Molecular target: T10, α-synuclein peptide 9 (57-70)
# Assay: pepscan ELISA
# Method: as §3
row,Binder,binding result
1,B1,"no binding (tested: 100 ng/ml antibody, 500 ng/well peptide)"
2,B2,"no binding (tested: 100 ng/ml antibody, 500 ng/well peptide)"
3,B3,"no binding (tested: 100 ng/ml antibody, 500 ng/well peptide)"

# Molecular target: T11, α-synuclein peptide 10 (64-77)
# Assay: pepscan ELISA
# Method: as §3
row,Binder,binding result
1,B1,"no binding (tested: 100 ng/ml antibody, 500 ng/well peptide)"
2,B2,"no binding (tested: 100 ng/ml antibody, 500 ng/well peptide)"
3,B3,"no binding (tested: 100 ng/ml antibody, 500 ng/well peptide)"

# Molecular target: T12, α-synuclein peptide 11 (71-84)
# Assay: pepscan ELISA
# Method: as §3
row,Binder,binding result
1,B1,"no binding (tested: 100 ng/ml antibody, 500 ng/well peptide)"
2,B2,"no binding (tested: 100 ng/ml antibody, 500 ng/well peptide)"
3,B3,"no binding (tested: 100 ng/ml antibody, 500 ng/well peptide)"

# Molecular target: T13, α-synuclein peptide 12 (78-91)
# Assay: pepscan ELISA
# Method: as §3
row,Binder,binding result
1,B1,"no binding (tested: 100 ng/ml antibody, 500 ng/well peptide)"
2,B2,"no binding (tested: 100 ng/ml antibody, 500 ng/well peptide)"
3,B3,"no binding (tested: 100 ng/ml antibody, 500 ng/well peptide)"

# Molecular target: T14, α-synuclein peptide 13 (85-98)
# Assay: pepscan ELISA
# Method: as §3
row,Binder,binding result
1,B1,"no binding (tested: 100 ng/ml antibody, 500 ng/well peptide)"
2,B2,"no binding (tested: 100 ng/ml antibody, 500 ng/well peptide)"
3,B3,"no binding (tested: 100 ng/ml antibody, 500 ng/well peptide)"

# Molecular target: T15, α-synuclein peptide 14 (92-105)
# Assay: pepscan ELISA
# Method: as §3
row,Binder,binding result
1,B1,"no binding (tested: 100 ng/ml antibody, 500 ng/well peptide)"
2,B2,"no binding (tested: 100 ng/ml antibody, 500 ng/well peptide)"
3,B3,"no binding (tested: 100 ng/ml antibody, 500 ng/well peptide)"

# Molecular target: T16, α-synuclein peptide 15 (99-112)
# Assay: pepscan ELISA
# Method: as §3
row,Binder,binding result
1,B1,"no binding (tested: 100 ng/ml antibody, 500 ng/well peptide)"
2,B2,"no binding (tested: 100 ng/ml antibody, 500 ng/well peptide)"
3,B3,"no binding (tested: 100 ng/ml antibody, 500 ng/well peptide)"

# Molecular target: T17, α-synuclein peptide 16 (106-119)
# Assay: pepscan ELISA
# Method: as §3
row,Binder,binding result
1,B1,"no binding (tested: 100 ng/ml antibody, 500 ng/well peptide)"
2,B2,"no binding (tested: 100 ng/ml antibody, 500 ng/well peptide)"
3,B3,"no binding (tested: 100 ng/ml antibody, 500 ng/well peptide)"

# Molecular target: T18, α-synuclein peptide 17 (113-126)
# Assay: pepscan ELISA
# Method: as §3
row,Binder,binding result
1,B1,"no binding (tested: 100 ng/ml antibody, 500 ng/well peptide)"
2,B2,"no binding (tested: 100 ng/ml antibody, 500 ng/well peptide)"
3,B3,"no binding (tested: 100 ng/ml antibody, 500 ng/well peptide)"

# Molecular target: T19, α-synuclein peptide 18 (120-133)
# Assay: pepscan ELISA
# Method: as §3
row,Binder,binding result
1,B1,"no binding (tested: 100 ng/ml antibody, 500 ng/well peptide)"
2,B2,"no binding (tested: 100 ng/ml antibody, 500 ng/well peptide)"
3,B3,"no binding (tested: 100 ng/ml antibody, 500 ng/well peptide)"
